For the assay, the target named is MET receptor (endogenous, on EHMES-1 cells) (human (endogenous in EHMES-1)) (UniProt P08581).

The record followed here is publication PMC6220203, “Cellular signaling and gene expression profiles evoked by a bivalent macrocyclic peptide that serves as an artificial MET receptor agonist” (Scientific Reports, 2018).

“MET receptor (endogenous, on EHMES-1 cells) (from UniProt P08581 25-1390)”: the MET receptor Tyr1234/1235 phosphorylation (cell-based enzyme-linked immunosorbent assay) in EHMES-1 cells against the concentration of aMD5-PEG11; bell-shaped profile was 120 nM.
